Data: patent publication US20150044245A1, “PARTIAL MHC CONSTRUCTS AND METHODS OF USE” (Oregon Health & Science University, priority 2012, published 2015)
Blank lines part the entries; values can stand above or below the molecule they belong to.

Columns and labels:
[1] = biological target: low affinity binding site for RTL on DR*1501-Tg mouse splenocytes; assay: competition of unlabeled construct with labeled RTL1000 (280 nM) on DR*1501-Tg splenocytes; low affinity site
[2] = biological target: low affinity binding site for RTL on MHC class II deficient mouse splenocytes; assay: competition of unlabeled construct with labeled RTL1000 on MHC class II deficient mouse splenocytes; low affinity site
[3] = biological target: low affinity binding site for RTL on MHC class II deficient mouse splenocytes; assay: competition on whole cells of MHC class II knockout mice: labeled RTL1000 against increasing unlabeled RTL340; SDS-PAGE fluorescence densitometry
[4] = biological target: CD74 (MHC class II invariant chain) of DR*1501-Tg mouse splenocytes and monocytes (mouse) (UniProt P04441)
[5] = biological target: high affinity binding site for RTL on DR*1501-Tg mouse splenocytes; assay: competition of unlabeled construct with labeled RTL1000 (280 nM) on DR*1501-Tg splenocytes; high affinity site
[6] = biological target: high affinity binding site for RTL on DR*1501-Tg mouse splenocytes; assay: saturation binding to 2 million spleen cells on ice; urea lysis, SDS-PAGE, fluorescence densitometry; two-site fit
[7] = biological target: low affinity binding site for RTL on DR*1501-Tg mouse splenocytes; assay: as above
[8] = biological target: four-domain MHC class II from DR*1501-Tg mice (human transgene expressed in mouse); assay: direct saturation binding of FITC-labeled construct to MHC class II immuno-adsorbed on Protein L/L243 beads; one-site fit
Histone complex (Sigma) = assay: SPR (Biacore 3000), histone complex amine coupled to CM5 chip, RTL1000 injected; 1:1 Langmuir model with drifting baseline
[9] = biological target: RTL binding sites on CD11b+ monocytes of DR*1501-Tg mice; assay: flow cytometry; naive CD11b+ monocytes incubated with 1 µg RTL1000 FITC (1 hour at 37 °C by the text); upper row of panels
[10] = biological target: RTL binding sites on CD11b+ monocytes of DR*1501-Tg mice; assay: flow cytometry; naive CD11b+ monocytes incubated with 5 µg RTL1000 FITC (1 hour at 37 °C by the text); upper row of panels
[11] = biological target: low affinity binding site for RTL on MHC class II deficient mouse splenocytes; assay: competition on whole cells of MHC class II knockout mice: labeled RTL1000 against increasing unlabeled RTL1000; SDS-PAGE fluorescence densitometry
[12] = biological target: RTL binding sites on CD11c+ cells of DR*1501-Tg mouse blood; assay: flow cytometry; blood of naive DR*1501-Tg mice 15 minutes after injection of 500 µg FITC-labeled RTL; monocyte gate, live cells; No RTL (pre-injection) panel 0.12%
[13] = biological target: RTL binding sites on CD19+ cells of DR*1501-Tg mouse blood; assay: as above
[14] = biological target: RTL binding sites on CD3+ cells of DR*1501-Tg mouse blood; assay: as above
[15] = biological target: RTL binding sites on CD11b+ monocytes of DR*1501-Tg mice; assay: flow cytometry; blood of naive DR*1501-Tg mice 15 minutes after injection of 500 µg FITC-labeled RTL; monocyte gate, live cells; No RTL (pre-injection) panel 0.14%
[16] = biological target: RTL binding sites on CD11b+ monocytes of DR*1501-Tg mice; assay: flow cytometry; blood of naive DR*1501-Tg mice 15 minutes after injection of 500 µg FITC-labeled RTL; LYMPHOCYTE gate, live cells; No RTL (pre-injection) panel 0.00%
[17] = biological target: RTL binding sites on CD11c+ cells of DR*1501-Tg mouse blood; assay: flow cytometry; blood of naive DR*1501-Tg mice 15 minutes after injection of 500 µg FITC-labeled RTL; lymphocyte gate, live cells; No RTL (pre-injection) panel 0.00%
[18] = biological target: RTL binding sites on CD19+ cells of DR*1501-Tg mouse blood; assay: as above
[19] = biological target: RTL binding sites on CD3+ cells of DR*1501-Tg mouse blood; assay: flow cytometry; blood of naive DR*1501-Tg mice 15 minutes after injection of 500 µg FITC-labeled RTL; lymphocyte gate, live cells; No RTL (pre-injection) panel 0.05%
[20] = biological target: RTL binding sites on CD19+ cells of DR*1501-Tg mouse blood; assay: flow cytometry; blood of naive DR*1501-Tg mice incubated in vitro with FITC-labeled RTL (legend: 500 µg), 90 minutes post-treatment; monocyte gate; No RTL (pre-treatment) panel 0.00%
[21] = biological target: RTL binding sites on CD3+ cells of DR*1501-Tg mouse blood; assay: as above
[22] = biological target: RTL binding sites on CD11b+ monocytes of DR*1501-Tg mice; assay: flow cytometry; blood of naive DR*1501-Tg mice incubated in vitro with FITC-labeled RTL (legend: 500 µg), 90 minutes post-treatment; monocyte gate; No RTL (pre-treatment) panel 0.07%
[23] = biological target: RTL binding sites on CD11c+ cells of DR*1501-Tg mouse blood; assay: flow cytometry; blood of naive DR*1501-Tg mice incubated in vitro with FITC-labeled RTL (legend: 500 µg), 90 minutes post-treatment; monocyte gate; No RTL (pre-treatment) panel 0.09%
[24] = biological target: RTL binding sites on CD11b+ monocytes of DR*1501-Tg mice; assay: flow cytometry; blood of naive DR*1501-Tg mice incubated in vitro with FITC-labeled RTL (legend: 500 µg), 90 minutes post-treatment; LYMPHOCYTE gate; No RTL (pre-treatment) panel 0.00%
[25] = biological target: RTL binding sites on CD11c+ cells of DR*1501-Tg mouse blood; assay: flow cytometry; blood of naive DR*1501-Tg mice incubated in vitro with FITC-labeled RTL (legend: 500 µg), 90 minutes post-treatment; lymphocyte gate; No RTL (pre-treatment) panel 0.00%
[26] = biological target: RTL binding sites on CD19+ cells of DR*1501-Tg mouse blood; assay: as above
[27] = biological target: RTL binding sites on CD3+ cells of DR*1501-Tg mouse blood; assay: as above
[28] = system: mMOG-35-55-induced EAE in DR*1501-Tg mice
[29] = biological target: T1, CD74 (MHC class II invariant chain) of DR*1501-Tg mouse splenocytes and monocytes (mouse, UniProt P04441-2 1-215, limits assumed, surface biotinylated in the immunoprecipitation experiments); assay: competition of unlabeled DR-α1 with FITC-labeled RTL1000 (320 nM) for immunoprecipitated CD74; gel densitometry; one-site competition fit
T1 construct: Native protein from mouse cells; also called p31
T1 sequence (looked up): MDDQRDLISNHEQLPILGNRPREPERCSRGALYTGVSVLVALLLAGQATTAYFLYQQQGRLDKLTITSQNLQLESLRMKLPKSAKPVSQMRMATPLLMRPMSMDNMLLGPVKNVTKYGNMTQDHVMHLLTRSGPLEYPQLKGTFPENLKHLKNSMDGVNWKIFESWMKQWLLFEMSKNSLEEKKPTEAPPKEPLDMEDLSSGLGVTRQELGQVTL

[30] = biological target: T1, CD74 (MHC class II invariant chain) of …; assay: direct saturation binding of FITC-labeled construct to CD74 immuno-adsorbed on Protein L/ln-1 beads; SDS-PAGE densitometry; one-site fit
[31] = free peptide 10 μg i.v. daily for 5 days from onset

Molecule: RTL340 (pDR2/MBP-85-99) (peptide-MHC)
- EC50 [1]: 140 nM
- EC50 [2]: 43.2 nM
- IC50 (read off the curve) [3]: 60 nM

Molecule: mMOG-35-55 peptide: free mouse MOG-35-55 peptide, MEVGWYRSPFSRVVHLYRNGK (SEQ ID NO: 50) (Synthetic peptide - mouse MOG 35-55) [reference compound]
- CDI [28, 31]: 31.5 ± 9.8
- Incidence [28, 31]: 5/5
- Mortality [28, 31]: 0
- Onset [28, 31]: 11.2 ± 1.2
- Peak [28, 31]: 3.0 ± 0.9
- effect on EAE (in words) ([28]; mMOG-35-55-induced EAE): did not produce significant inhibition of EAE

Further lines, results first:

- CD74 expression on naive CD11b+ monocytes after 1 µg RTL1000: % of cells in the upper right quadrant (CD11b APC+, CD74 PE+) [4]: 42%
- CD74 expression on naive CD11b+ monocytes after 5 µg RTL1000: % of cells in the upper right quadrant (CD11b APC+, CD74 PE+) [4]: 9.84%
- CD74 expression on naive CD11b+ monocytes after 10 µg RTL1000: % of cells in the upper right quadrant (CD11b APC+, CD74 PE+) [4]: 7.32%
- EC50 [1]: 11 nM
- EC50 [5]: 4000 nM
- Kd [6]: 2.65 nM
- Kd [7]: 131 nM
- EC50 [2]: 71.1 nM
- Kd [8]: 1.14 nM
- Kd (Histone complex (Sigma)): 575 nM
- % of cells in the upper right quadrant (CD11b APC+, RTL1000 FITC+) [9]: 55.8%
- % of cells in the upper right quadrant (CD11b APC+, RTL1000 FITC+) [10]: 69.5%
- IC50 (read off the curve) [11]: 40 nM
- % of cells in the upper right quadrant (CD11c APC+, RTL FITC+) [12]: 9.26%
- % of cells in the upper right quadrant (CD19 APC+, RTL FITC+) [13]: 3.93%
- % of cells in the upper right quadrant (CD3 PE+, RTL FITC+) [14]: 0.36%
- % of cells in the upper right quadrant (CD11b PE+, RTL FITC+) [15]: 44.4%
- % of cells in the upper right quadrant (CD11b PE+, RTL FITC+) [16]: 9.23%
- % of cells in the upper right quadrant (CD11c APC+, RTL FITC+) [17]: 4.63%
- % of cells in the upper right quadrant (CD19 APC+, RTL FITC+) [18]: 0.82%
- % of cells in the upper right quadrant (CD3 PE+, RTL FITC+) [19]: 0.16%
- % of cells in the upper right quadrant (CD19 APC+, RTL FITC+) [20]: 5.82%
- % of cells in the upper right quadrant (CD3 PE+, RTL FITC+) [21]: 4.01%
- % of cells in the upper right quadrant (CD11b PE+, RTL FITC+) [22]: 38.6%
- % of cells in the upper right quadrant (CD11c APC+, RTL FITC+) [23]: 6.77%
- % of cells in the upper right quadrant (CD11b PE+, RTL FITC+) [24]: 3.96%
- % of cells in the upper right quadrant (CD11c APC+, RTL FITC+) [25]: 4.4%
- % of cells in the upper right quadrant (CD19 APC+, RTL FITC+) [26]: 1.26%
- % of cells in the upper right quadrant (CD3 PE+, RTL FITC+) [27]: 1.49%
Molecule: RTL1000 (pDR2/hMOG-35-55) (peptide-MHC)

- EC50 [29]: 447 nM
- Kd [30]: 2.95 nM
B1: DR-α1 domain alone (no DR2-β1 domain or peptide) (other, UniProt P01903 26-109, looked up)
chain: IKEEHVIIQAEFYLNPDQSGEFMFDFDGDEIFHVDMAKKETVWRLEEFGRFASFEAQGALANIAVDKANLEIMTKRSNYTPITN
modifications: labeled with FITC in the direct binding assays
notes: domain: α1
